From the Immune Epitope Database (IEDB) come the findings set out here.

In test [1] the target is HLA-B*40:01. Briefly: IEDB peptide-MHC binding, purified MHC/direct/fluorescence; filed as Kd, often an IC50 or EC50 that approximates it; ≥ and ≤ were set here for values at or beyond the usual limits of such assays. As to conditions: source organism: Mammarenavirus juninense.
For another test, the target named is HLA-A*24:02. Briefly: IEDB peptide-MHC binding, purified MHC/competitive/fluorescence; ≥ and ≤ were set here for values at or beyond the usual limits of such assays.
The target in test [2] is HLA-A*02:01. Described as above.
The next test concerns the target HLA-A*30:01. Description: IEDB peptide-MHC binding, purified MHC/competitive/radioactivity; filed as Kd, often an IC50 or EC50 that approximates it; ≥ and ≤ were set here for values at or beyond the usual limits of such assays.
Another test has as its target HLA-A*32:01. The description is as above.
Another test addresses HLA-A*26:01. The test is described as above.
The target in another test is HLA-A*29:02. The description is as above.
Test [3] addresses HLA-A*01:01. The description is as above.
The target in the next test is HLA-A*30:02. Described as above.
Test [4] addresses HLA-A*02:01. Description: IEDB peptide-MHC binding, purified MHC/competitive/fluorescence; filed as Kd, often an IC50 or EC50 that approximates it; ≥ and ≤ were set here for values at or beyond the usual limits of such assays. As to conditions: source organism: Vaccinia virus Tian Tan.
In the next test the target is HLA-A*69:01. Description: IEDB peptide-MHC binding, purified MHC/direct/fluorescence; filed as Kd, often an IC50 or EC50 that approximates it; ≥ and ≤ were set here for values at or beyond the usual limits of such assays. The settings on record: source organism: SARS-CoV1.
For the next test, the target named is HLA-B*58:01. Described as above. As to conditions: source organism: SARS-CoV1.
For the next test, the target named is HLA-A*11:01. Described as above.
The target of a further test is HLA-B*15:01. The description is as above.
A further test addresses HLA-B*07:02. The description is as above. The settings on record: source organism: SARS-CoV1.
For another test, the target named is HLA-B*35:01. Description: IEDB peptide-MHC binding, purified MHC/competitive/radioactivity; filed as Kd, often an IC50 or EC50 that approximates it; ≥ and ≤ were set here for values at or beyond the usual limits of such assays. As to conditions: source organism: Dengue virus 3 Martinique/1243/1999.
In test [5] the target is HLA-A*01:01. Description: IEDB peptide-MHC binding, purified MHC/direct/fluorescence; filed as Kd, often an IC50 or EC50 that approximates it; ≥ and ≤ were set here for values at or beyond the usual limits of such assays. The settings on record: source organism: Human immunodeficiency virus 1.
The target in a further test is HLA-A*02:03. Description: IEDB peptide-MHC binding, purified MHC/competitive/radioactivity; filed as Kd, often an IC50 or EC50 that approximates it; ≥ and ≤ were set here for values at or beyond the usual limits of such assays. The settings on record: source organism: Vaccinia virus WR.
The target of another test is HLA-A*02:02. The test is described as above. The settings on record: source organism: Vaccinia virus WR.
The target of a further test is HLA-A*02:06. The description is as above. The settings on record: source organism: Vaccinia virus WR.
For test [6], the target named is HLA-B*40:01. The description is as above. As to conditions: source organism: Dengue virus 4 Philippines/H241/1956.
A further test addresses HLA-B*44:03. The description is as above. The settings on record: source organism: Dengue virus 4 Philippines/H241/1956.
Another test deals with HLA-B*44:02. The description is as above. The settings on record: source organism: Dengue virus 4 Philippines/H241/1956.
The target in another test is HLA-B*39:01. Briefly: IEDB peptide-MHC binding, purified MHC/competitive/fluorescence; filed as Kd, often an IC50 or EC50 that approximates it; ≥ and ≤ were set here for values at or beyond the usual limits of such assays. As to conditions: source organism: Escherichia coli str. K-12 substr. MG1655.
[7] abbreviates: source organism: Vaccinia virus.
[8] abbreviates: source organism: Mammarenavirus guanaritoense.
Where [9] appears, read: source organism: Zaire ebolavirus.
The mark [10] stands for this setting: source organism: Human immunodeficiency virus 1.
The mark [11] stands for this setting: source organism: Vaccinia virus WR.
The mark [12] stands for this setting: source organism: Mammarenavirus lassaense.
Where [13] appears, read: source organism: Sudan ebolavirus.

For orientation: Kd means a measure of binding affinity in units of concentration. As to GEEFFHQYL, the Kd with HLA-B*40:01 [1] is 0.0102 µM.
What is called IC50 is the midpoint of a concentration-inhibition curve. A higher IC50 goes with lower potency. Consider FGNLSPETL, for which the results for the IC50 in the test with HLA-A*24:02 (setting [7]) and in the test with HLA-A*02:01 [2] (setting [7]) were 57.8 µM and 59.5 µM, respectively.
For the sequence DLMSMSDGEF, the Kd was at least 70.4 µM with HLA-A*30:01 (setting [8]); at least 22.9 µM with HLA-A*32:01 (setting [8]); 0.673 µM in the test with HLA-A*26:01 (setting [8]); 8.87 µM with HLA-A*29:02 (setting [8]); at least 41.2 µM with HLA-A*01:01 [3] (setting [8]); 1.92 µM with HLA-A*30:02 (setting [8]).
For the sequence FTFSNVCESV, the Kd with HLA-A*02:01 [4] worked out at 0.0084 µM.
LFLPKLVVG: the IC50 with HLA-A*24:02 (setting [9]) was found to be 1.56 µM; in the test with HLA-A*02:01 [2] (setting [9]), 35.3 µM.
As to GTAKLRWFVE, the Kd with HLA-A*32:01 (source organism: Dengue virus 1 Brazil/97-11/1997) was at least 21.1 µM.
Turning to GTDPYRPSF, the Kd was at least 30.3 µM in the test with HLA-A*30:01 (setting [8]); 2.43 µM with HLA-A*32:01 (setting [8]); at least 77.9 µM in the test with HLA-A*26:01 (setting [8]); 11 µM with HLA-A*29:02 (setting [8]); 7.15 µM with HLA-A*01:01 [3] (setting [8]); 5.28 µM with HLA-A*30:02 (setting [8]).
In turn, HEHDQIGDI yielded an IC50 with HLA-A*24:02 (source organism: Variola virus) of 23.8 µM.
On to TTLPVNVAF, for which the Kd with HLA-A*69:01 was 0.02 µM; in the test with HLA-B*58:01, 0.329 µM; with HLA-A*11:01 (source organism: SARS-CoV1), at least 27.3 µM; with HLA-B*15:01 (source organism: SARS-CoV1), 1.76 µM; with HLA-B*07:02, 5.76 µM.
KIDQIIHDF: the values for the IC50 with HLA-A*24:02 (setting [9]) and in the test with HLA-A*02:01 [2] (setting [9]) were 46.9 µM and 66.4 µM, respectively.
ILYYLSAKI: the Kd in the test with HLA-A*32:01 (source organism: Vaccinia virus Copenhagen) was 0.00887 µM.
Consider SKGWHDWQQV, for which the Kd in the test with HLA-A*32:01 (source organism: Dengue virus 3 Martinique/1243/1999) came out at 1.4 µM.
With IPFSTEDGQG, the Kd in the test with HLA-B*35:01 worked out at 1.73 µM.
Regarding SIINSNVTW, in the test with HLA-A*32:01 (source organism: Vaccinia virus L-IPV), the Kd is 0.0111 µM.
For EDPSSGYYS, the IC50 with HLA-A*24:02 (setting [9]) is at least 185 µM.
In the case of TVLDVGDAY, the Kd in the test with HLA-A*11:01 (setting [10]) turned out to be 0.436 µM; with HLA-B*15:01 (setting [10]), 0.17 µM; with HLA-A*01:01 [5], 10.2 µM.
On to VMYAFTTPL, for which the Kd in the test with HLA-A*02:03 stood at 0.00128 µM; with HLA-A*02:02, 0.000573 µM; with HLA-A*32:01 (setting [11]), 0.000291 µM; with HLA-A*02:06 it was 0.00571 µM.
As to YRGTTFAEG, the IC50 with HLA-A*24:02 (setting [9]) was at least 147 µM.
Turning to DRYPANAIV, in the test with HLA-A*11:01 (source organism: SARS-CoV1), the Kd was at least 25.4 µM.
Consider VHEHDQIGD, for which, in the test with HLA-A*24:02 (source organism: Variola virus), the IC50 turned out to be 1.87 µM.
With FYSQESPQSY, the Kd in the test with HLA-A*30:01 (setting [12]) is at least 49.5 µM; with HLA-A*32:01 (setting [12]) it was 9.4 µM; with HLA-A*26:01 (setting [12]), 0.38 µM; with HLA-A*29:02 (setting [12]), 0.00176 µM; in the test with HLA-A*01:01 [3] (setting [12]), 0.758 µM; with HLA-A*30:02 (setting [12]), 2.93 µM.
With LSNYIVSIF, the Kd in the test with HLA-A*32:01 (setting [11]) turned out to be 0.111 µM.
With GEIGAVTLDF, the dissociation constant Kd worked out at 0.073 µM with HLA-B*40:01 [6], 0.0216 µM with HLA-B*44:03 and 0.017 µM in the test with HLA-B*44:02.
With STMDVNHPI, the Kd in the test with HLA-A*32:01 (setting [11]) was 0.00742 µM.
Turning to LYDRLASTV, the figures for the IC50 with HLA-A*24:02 (setting [13]) and with HLA-A*02:01 [2] (setting [13]) were 1.32 µM and 7.48 µM, respectively.
The sequence FHNDSTPRY returned a Kd in the test with HLA-B*39:01 of 3.47 µM.
Consider PWLTEKEAM, for which the figures for the 50% inhibitory concentration (IC50) with HLA-A*24:02 (setting [9]) and with HLA-A*02:01 [2] (setting [9]) were 0.435 µM and at least 216 µM, respectively.
In the test with HLA-A*24:02 (setting [9]), EAMNEENRF showed an IC50 of at least 147 µM.
